The source of these data is article doi:10.1101/726224 (bioRxiv, 2019).

The assay addresses Cyclin B1^165-433 (isolated) (UniProt P14635 165-433). The assay is described as follows: SEC. For orientation: SEC sorts molecules by how far they enter the pores of the column.

Cyclin B1^165-433 (isolated), sequence (P14635 165-433): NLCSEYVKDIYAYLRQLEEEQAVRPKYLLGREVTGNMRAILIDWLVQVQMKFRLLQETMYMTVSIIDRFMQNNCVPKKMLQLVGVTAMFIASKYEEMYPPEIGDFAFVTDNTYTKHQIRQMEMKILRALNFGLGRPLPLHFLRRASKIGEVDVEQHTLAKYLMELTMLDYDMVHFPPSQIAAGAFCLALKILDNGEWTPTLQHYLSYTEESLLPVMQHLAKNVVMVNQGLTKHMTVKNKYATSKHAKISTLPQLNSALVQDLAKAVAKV

As to LQMQYQQSMQLEERAEQIRSKS (domain or fragment) [MBP-MAD1^41-62], the binding result is “binds”.
